Results on 94 variants are retold here after the supplement of paper PMC10567573.

To fix the notation:
B1: TRIM9 (parent)
chain: CVQCKMPVCYQCLEEGKHSSHEVK
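Note: lentivirally expressed fusions sorted by FACS into six bins by GFP to DsRed ratio, PSI derived from sequencing read proportions per bin multiplied by bin number.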

In this series the parent is B1. The series is described as follows: protein stability index of a GFP-peptide fusion (GPS, HEK-293T) (PSI 1-6); higher = more stable. As to conditions: c terminus: a fixed tail appended.
With CVQCKMPVCYPCLEEGKHSSHEVK [Q11P], the protein stability index amounted to 3.76. The figure for CVQCKMPVCYGCLEEGKHSSHEVK [Q11G] is 4.92; for CVQCKMPVCYMCLEEGKHSSHEVK [Q11M] it is 3.17. As to CVQCKMPVCYWCLEEGKHSSHEVK [Q11W], the protein stability index stood at 2.93. Under CVQCKMPVCYKCLEEGKHSSHEVK [Q11K] stands 3.95. Turning to CVQCKMPVCYSCLEEGKHSSHEVK [Q11S], the protein stability index was 3.67.

CVQCKMPVCYFCLEEGKHSSHEVK [Q11F]: the protein stability index is 3.65. The figure for CIQCKMPVCYQCLEEGKHSSHEVK [V2I] is 4.02; for CWQCKMPVCYQCLEEGKHSSHEVK [V2W] it is 3.16. Under CDQCKMPVCYQCLEEGKHSSHEVK [V2D] stands 4.16; under CSQCKMPVCYQCLEEGKHSSHEVK [V2S], 4.25; under CPQCKMPVCYQCLEEGKHSSHEVK [V2P], 4.18. For the variant CLQCKMPVCYQCLEEGKHSSHEVK [V2L], the protein stability index came to 3.5. For CCQCKMPVCYQCLEEGKHSSHEVK [V2C], the protein stability index is 3.98. Under CFQCKMPVCYQCLEEGKHSSHEVK [V2F] stands 3.51. Turning to CRQCKMPVCYQCLEEGKHSSHEVK [V2R], the protein stability index was determined as 3.8. For the variant CAQCKMPVCYQCLEEGKHSSHEVK [V2A], the protein stability index is 3.97. The figure for CGQCKMPVCYQCLEEGKHSSHEVK [V2G] is 3.6. Regarding CNQCKMPVCYQCLEEGKHSSHEVK [V2N], the protein stability index came to 3.46. Take CHQCKMPVCYQCLEEGKHSSHEVK [V2H]: the protein stability index was determined as 4.63. The figure for CVQCKMPVCYQNLEEGKHSSHEVK [C12N] is 3.67; for CVQCKMPVCYQDLEEGKHSSHEVK [C12D] it is 4.2. Under CVQCKMPVCYQILEEGKHSSHEVK [C12I] stands 2.28.

For CVQCKMPVCYQPLEEGKHSSHEVK [C12P], the protein stability index turned out to be 3. Under CVQCKMPVCYQVLEEGKHSSHEVK [C12V] stands 3.45; under CVQCKMPVCYQLLEEGKHSSHEVK [C12L], 3.48.

For the variant CVQCKMPVCYQSLEEGKHSSHEVK [C12S], the protein stability index was found to be 4.48.

As to CVQCKMPVCRQCLEEGKHSSHEVK [Y10R], the protein stability index turned out to be 4.27.

For CVQCKMPVCQQCLEEGKHSSHEVK [Y10Q], the protein stability index was 4.16. The figure for CVQCKMPVCKQCLEEGKHSSHEVK [Y10K] is 4.15; for CVQCKMPVCYQCLEEGKHSKHEVK [S20K] it is 4.26; for CVQCKMPVCYQCLEEGKHSEHEVK [S20E] it is 3.98. In the case of CVQCKMPVCYQCLEEGKHSRHEVK [S20R], the protein stability index turned out to be 4.38.

In the case of CVQCKMPVCYQCLEEGKHSMHEVK [S20M], the protein stability index turned out to be 4. As for CVQCKMPVCYQCLEEGKHSYHEVK [S20Y], the protein stability index came to 3.24. As for CVQCKMPVCYQCLEEGKHSFHEVK [S20F], the protein stability index is 2.59. Under CVQCKMPVCYQCLEEGKHSQHEVK [S20Q] stands 4.29. Under CVQCKMPVCYQCLEEGKHSSHEWK [V23W] stands 3.38; under CVQCKMPVCYQCLEEGKHSSHEPK [V23P], 4.24; under CVQCKMPVCYQCLEEGKHSSHELK [V23L], 3.16. Under CVQCKMPVCYQCLEEGKHSSHEMK [V23M] stands 4; under CVQCKMPVCYQCLEEGKHSSHEFK [V23F], 3.65.

With CVQCKMPVCYQCLEEGKHSSHEKK [V23K], the protein stability index turned out to be 3.68. The figure for CVQCKMPVCYQCLEEGKHSSHEAK [V23A] is 4.37. On to CVQCKMPVCYQCLEEGKHSSHEYK [V23Y], for which the protein stability index is 3.46. The figure for CVQCKMPVCYQCLEEGKHSSHENK [V23N] is 3.98; for CVQCKMHVCYQCLEEGKHSSHEVK [P7H] it is 3.23. The figure for CVQCKMIVCYQCLEEGKHSSHEVK [P7I] is 3.69; for CVQCKMEVCYQCLEEGKHSSHEVK [P7E] it is 4.35. The figure for CVQCKMRVCYQCLEEGKHSSHEVK [P7R] is 3.51; for CVQCKMDVCYQCLEEGKHSSHEVK [P7D] it is 3.11.

For CVQCKMAVCYQCLEEGKHSSHEVK [P7A], the protein stability index worked out at 4.02. Under CVQCKMFVCYQCLEEGKHSSHEVK [P7F] stands 2.48; under CVQCKMLVCYQCLEEGKHSSHEVK [P7L], 3.28; under CVQCKMCVCYQCLEEGKHSSHEVK [P7C], 4.06. Under CVQCKMPVCYQCLEEGKMSSHEVK [H18M] stands 3.93; under CVQCKMPVCYQCLEEGKVSSHEVK [H18V], 3.

Take CVQCKMPVCYQCLEEGKASSHEVK [H18A]: the protein stability index worked out at 4.04. With CVQCKMPVCYQCLEEGKNSSHEVK [H18N], the protein stability index turned out to be 3.94.

In the case of CVQCKMPVCYQCLEEGKISSHEVK [H18I], the protein stability index turned out to be 3.41. On to CVQCKMPVCYQCLEEGKYSSHEVK [H18Y], for which the protein stability index came out at 3.55.

Regarding CVQVKMPVCYQCLEEGKHSSHEVK [C4V], the protein stability index was found to be 2.9. The figure for CVQAKMPVCYQCLEEGKHSSHEVK [C4A] is 3.2; for CVQYKMPVCYQCLEEGKHSSHEVK [C4Y] it is 3.86. CVQPKMPVCYQCLEEGKHSSHEVK [C4P]: the protein stability index stood at 4.11. Under CVQWKMPVCYQCLEEGKHSSHEVK [C4W] stands 3.17; under CVQHKMPVCYQCLEEGKHSSHEVK [C4H], 3.62.

As to CVQSKMPVCYQCLEEGKHSSHEVK [C4S], the protein stability index came out at 3.23.

With CVQGKMPVCYQCLEEGKHSSHEVK [C4G], the protein stability index was found to be 3.15. CVQCKMPVIYQCLEEGKHSSHEVK [C9I]: the protein stability index is 3.18. The figure for CVQCKMPVPYQCLEEGKHSSHEVK [C9P] is 3.02. The figure for CVQCKMPVMYQCLEEGKHSSHEVK [C9M] is 3.64. Under CVQCKMPVYYQCLEEGKHSSHEVK [C9Y] stands 2.8; under CVQCKMPVWYQCLEEGKHSSHEVK [C9W], 2.96. With CVQCKMPVHYQCLEEGKHSSHEVK [C9H], the protein stability index was determined as 3.5. The figure for CVQCKMPVSYQCLEEGKHSSHEVK [C9S] is 4.24. The figure for CVQCKMPVFYQCLEEGKHSSHEVK [C9F] is 2.59; for CVQCKMPVCYQCLEEGKHMSHEVK [S19M] it is 3.72; for CVQCKMPVCYQCLEEGKHTSHEVK [S19T] it is 4.25.

For CVQCKMPVCYQCLEEGKHESHEVK [S19E], the protein stability index is 4.62. The figure for CVQCKMPVCYQCLEEGKHFSHEVK [S19F] is 3.37; for CVQCKMPVCYQCLEEGKHRSHEVK [S19R] it is 3.73; for CVQCKMPVCYQCLEEGKHYSHEVK [S19Y] it is 3.1. The figure for CVQCKMPVCYQCLEEGKHASHEVK [S19A] is 4.41. The figure for CVQCKMPVCYQCLEEGKHNSHEVK [S19N] is 4.38; for CVYCKMPVCYQCLEEGKHSSHEVK [Q3Y] it is 3.04. For CVICKMPVCYQCLEEGKHSSHEVK [Q3I], the protein stability index is 3.6. The figure for CVPCKMPVCYQCLEEGKHSSHEVK [Q3P] is 2.94; for CVMCKMPVCYQCLEEGKHSSHEVK [Q3M] it is 3.4; for CVSCKMPVCYQCLEEGKHSSHEVK [Q3S] it is 4.12. For the variant CVRCKMPVCYQCLEEGKHSSHEVK [Q3R], the protein stability index was 4.22.

With CVCCKMPVCYQCLEEGKHSSHEVK [Q3C], the protein stability index turned out to be 3.99. The figure for CVACKMPVCYQCLEEGKHSSHEVK [Q3A] is 2.96; for CVQCKMPQCYQCLEEGKHSSHEVK [V8Q] it is 4.33.
